Where two headings read alike, the source gives them in different places.
B1: AAV-a-AJ31 (TCR, V domains shown)
Valpha: SQQGEEDPQALSIQEGENATMNCSYKTSINNLQWYRQNSGRGLVHLILIRSNEREKHSGRLRVTLDTSKKSSSLLITASRAADTASYFCATLYNARLMFGDGTQLVVKP
Vbeta: NAGVTQTPKFRVLKTGQSMTLLCAQDMNHEYMYWYRQDPGMGLRLIHYSVGEGTTAKGEVPDGYNVSRLKKQNFLLGLESAAPSQTSVYFCASRSGSAGAFFGQGTRLTVV
B2: p74-scTCR multimer: PE-conjugated multimer generated from biotinylated AAV-a-AJ31 scTCR-BirA fusion protein (protein)
alpha: B1 Valpha
beta: B1 Vbeta
modifications: left off: things letters cannot carry; a dimerising Fc or GST; small tags and cut ends
notes: PE-conjugated multimer generated from biotinylated AAV-a-AJ31 scTCR-BirA fusion protein
B3: AAV-b-scTCR-BirA (TCR, V domains shown)
Valpha: TQLLEQSPQFLSIQEGENLTVYCNSSSVFSSLQWYRQEPGEGPVLLVTVVTGGEVKKLKRLTFQFGDARKDSSLHITAAQPGDTGLYLCAGKKTNDYKLSFGAGTTVTVRA
Vbeta: ETGVTQTPRHLVMGMTNKESLKCEQHLGHNAMYWYKQSAKKPLELMFVYSLEERVENNSVPSRFSPECPNSSHLFLHLHTLQPEDSALYLCASSQDRVNLAGEQYFGPGTRLTVT

Legend:
[1] = target: T1, AAV-2 capsid (AAV-p74 peptide) peptide on HLA-B*07:02 (human); assay: multimer staining
T1 peptide: VPQYGYLTL

[2] = target: MHC molecules displaying the AAV peptide epitopes on Malme-3 fibroblasts (UniProt P01889+P03135)
Protocol: AAV-scTCR multimer was tested in vitro using a normal human fibroblast cell line positive for HLA-B*0702 (Malme-3 available from the ATCC repository). Cells were peptide loaded with AAV capsid epitopes at a concentration of 10 ug/ml for 2 hrs at 37° C. and then stained with the AAV-scTCR multimer (FIG. 10); alternatively, cells were transduced with an AAV vector at an MOI of 5×10^5 or 1×10^6 and stained 24 or 48 hours later (FIG. 11).

[3] = test system: lymph node cells and splenocytes from HLA-B*0702 transgenic mice; assay: AAV-scTCR multimer staining of cells from HLA-B*0702 transgenic mice after intravenous AAV vector; assay type: cell-based
Description: FIGS. 12A and 12B are a pair of histograms swing AAV-scTCR multimer staining of CD11c+CD19-cells collected from HLA B*0702 mice one week after intravenous infusion of 1E11 vector genomes (vg) of AAV.

[4] = target: AAV-p74 peptide/HLA-B7 complexes on cell surface of JyA2B7 cells (UniProt P01889+P03135); details: for minimum AAV-p74 peptide loading concentration stained: 0.5 μg multimer
AAV-p74 peptide/HLA-B7 complexes on cell surface of JyA2B7 cells, sequence (P61769 21-119): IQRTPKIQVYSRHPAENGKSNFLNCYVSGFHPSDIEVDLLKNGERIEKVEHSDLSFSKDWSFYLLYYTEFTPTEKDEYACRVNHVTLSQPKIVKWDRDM
AAV-p74 peptide/HLA-B7 complexes on cell surface of JyA2B7 cells, sequence (P01889 25-362): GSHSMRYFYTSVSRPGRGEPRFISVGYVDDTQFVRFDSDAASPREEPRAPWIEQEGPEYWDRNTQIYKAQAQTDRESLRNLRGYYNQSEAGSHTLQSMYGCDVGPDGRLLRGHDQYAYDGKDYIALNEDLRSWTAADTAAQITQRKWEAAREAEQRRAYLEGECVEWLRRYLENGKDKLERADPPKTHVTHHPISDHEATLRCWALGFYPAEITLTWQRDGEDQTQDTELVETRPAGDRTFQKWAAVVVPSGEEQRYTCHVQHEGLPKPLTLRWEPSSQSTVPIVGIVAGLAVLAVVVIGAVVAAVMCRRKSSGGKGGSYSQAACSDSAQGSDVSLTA
Description: AAV-p74 peptide loaded HLA-B7-positive human lymphoblastoid cell line (JyA2B7) was used to determine whether AAV-a-scTCR can bind to AAV-p74 peptide/HLA-B7 complexes on cell surface.

MHC molecules displaying the AAV peptide epitopes on Malme-3 fibroblasts, sequence (P61769 21-119): as the sequence (P61769 21-119) above
MHC molecules displaying the AAV peptide epitopes on Malme-3 fibroblasts, sequence (P01889 25-362): as the sequence (P01889 25-362) above

Molecule | binding result [1] | staining of peptide-loaded fibroblasts ([2]; AAV capsid epitopes 10 ug/ml, 2 hrs, 37° C.) | staining of AAV-transduced fibroblasts ([2]; AAV vector MOI 5×10^5 or 1×10^6, stained 24 or 48 hours later) | staining of lymph node cells and splenocytes [3] | minimum AAV-p74 peptide loading concentration stained ([4]; PLE added during loading) [µg/mL] | minimum AAV-p74 peptide loading concentration stained ([4]; typical conditions) [µg/mL] | staining of JyA2B7 cells ([4]; cells loaded with 50 μg/ml AAV-p74 peptide, 0.025 μg/test multimer)
B1 | recognises | – | – | – | – | – | –
B2 | – | positive staining | positive staining | positive staining | 1 | 5 | Specific staining
B3 | recognises | – | – | – | – | – | –

Reference: US11559589B2, “Compositions and methods for detection and modulation of T cell mediated immune responses against viral vectors utilized for gene therapy” (The Children's Hospital of Philadelphia, priority 2006, dated 2023)
